# According to patent US8242083B2, “Kinase substrates” (PerkinElmer Health Sciences, Inc., priority 2008, dated 2012):
# Tests used:
# Assay type in all cases: biochemical
# [1] = target: ALK (Homo sapiens, UniProt Q9UM73); assay: TR-FRET kinase assay, ALK; details: Kinase Concentration 4 nM; 50 nM ULight-labeled substrate, 200 micromolar ATP, 2 hours
# Procedure: (§1) TR-FRET kinase assays are performed under standardized conditions: various individual kinases are incubated with 50 nM of kinase substrate BRB1 labeled with the TR-FRET acceptor dye ULight (PerkinElmer) and 200 micromolar ATP in 10 μL of kinase assay buffer (50 mM HEPES pH7.5, 10 mM MgCl2, 3 mM MnCl2, 1 mM EGTA, 2 mM DTT and 0.01% Tween-20) for 2 hours at room temperature. Reactions are stopped with EDTA, and anti-phospho-tyrosine antibodies (clone PT66) labeled with the TR-FRET europium chelate donor dye are added to a final concentration of 2 nM in a final volume of 20 μL. The TR-FRET signal emitted at 665 nm is read one hour after the addition of antibodies using a TR-FRET plate reader such as the Envision® Multilabel Plate reader (PerkinElmer). The emitted signal at 665 nm is proportional to the extent of peptide phosphorylation, Control reactions indicative of background are performed excluding ATP from the reaction.
# (§2) Assay conditions are identical to those used described for FIG. 1.
# [2] = target: ROR2 (Homo sapiens, UniProt Q01974); assay: TR-FRET kinase assay, ROR2; details: Kinase Concentration 20 nM; 50 nM ULight-labeled substrate, 200 micromolar ATP, 2 hours
# Procedure: as §1, §2
# [3] = target: KIT (Homo sapiens, UniProt P10721); assay: TR-FRET kinase assay, KIT; details: Kinase Concentration 2 nM; 50 nM ULight-labeled substrate, 200 micromolar ATP, 2 hours
# Procedure: as §1, §2
# [4] = target: T1, EphB1 (Homo sapiens, UniProt P54762); assay: TR-FRET kinase assay, EphB1; details: Kinase Concentration 0.5 nM; 50 nM ULight-labeled substrate, 200 micromolar ATP, 2 hours
# T1 sequence (P54762 18-984): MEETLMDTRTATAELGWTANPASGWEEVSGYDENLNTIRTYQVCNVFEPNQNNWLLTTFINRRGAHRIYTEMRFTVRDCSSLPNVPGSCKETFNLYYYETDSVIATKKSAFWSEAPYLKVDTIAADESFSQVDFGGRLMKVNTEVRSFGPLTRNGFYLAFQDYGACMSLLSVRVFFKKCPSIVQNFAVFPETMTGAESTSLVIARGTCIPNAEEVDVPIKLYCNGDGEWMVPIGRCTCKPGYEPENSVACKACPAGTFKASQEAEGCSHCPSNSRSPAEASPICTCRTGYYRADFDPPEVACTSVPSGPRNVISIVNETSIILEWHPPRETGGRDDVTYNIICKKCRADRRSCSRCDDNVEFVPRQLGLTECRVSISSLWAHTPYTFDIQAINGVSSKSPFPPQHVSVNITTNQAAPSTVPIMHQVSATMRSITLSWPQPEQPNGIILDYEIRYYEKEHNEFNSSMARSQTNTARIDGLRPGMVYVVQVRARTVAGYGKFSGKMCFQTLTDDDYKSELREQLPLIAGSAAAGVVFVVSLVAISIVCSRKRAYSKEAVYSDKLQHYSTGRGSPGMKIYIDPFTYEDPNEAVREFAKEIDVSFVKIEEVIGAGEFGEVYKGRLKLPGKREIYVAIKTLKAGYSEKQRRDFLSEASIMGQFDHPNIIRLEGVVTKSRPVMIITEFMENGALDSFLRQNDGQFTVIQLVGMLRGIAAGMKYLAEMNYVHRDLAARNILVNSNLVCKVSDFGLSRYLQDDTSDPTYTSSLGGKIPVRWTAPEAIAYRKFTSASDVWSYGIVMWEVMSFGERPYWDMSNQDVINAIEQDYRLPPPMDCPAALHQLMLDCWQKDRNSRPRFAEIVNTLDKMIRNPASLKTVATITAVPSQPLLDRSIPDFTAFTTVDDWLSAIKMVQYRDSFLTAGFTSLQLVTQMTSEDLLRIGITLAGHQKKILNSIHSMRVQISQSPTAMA
# Procedure: as §1, §2
# [5] = target: KDR (Homo sapiens, UniProt P35968); assay: TR-FRET kinase assay, KDR; details: Kinase Concentration 0.25 nM; 50 nM ULight-labeled substrate, 200 micromolar ATP, 2 hours
# Chain of KDR (P35968 20-1356, species assumed): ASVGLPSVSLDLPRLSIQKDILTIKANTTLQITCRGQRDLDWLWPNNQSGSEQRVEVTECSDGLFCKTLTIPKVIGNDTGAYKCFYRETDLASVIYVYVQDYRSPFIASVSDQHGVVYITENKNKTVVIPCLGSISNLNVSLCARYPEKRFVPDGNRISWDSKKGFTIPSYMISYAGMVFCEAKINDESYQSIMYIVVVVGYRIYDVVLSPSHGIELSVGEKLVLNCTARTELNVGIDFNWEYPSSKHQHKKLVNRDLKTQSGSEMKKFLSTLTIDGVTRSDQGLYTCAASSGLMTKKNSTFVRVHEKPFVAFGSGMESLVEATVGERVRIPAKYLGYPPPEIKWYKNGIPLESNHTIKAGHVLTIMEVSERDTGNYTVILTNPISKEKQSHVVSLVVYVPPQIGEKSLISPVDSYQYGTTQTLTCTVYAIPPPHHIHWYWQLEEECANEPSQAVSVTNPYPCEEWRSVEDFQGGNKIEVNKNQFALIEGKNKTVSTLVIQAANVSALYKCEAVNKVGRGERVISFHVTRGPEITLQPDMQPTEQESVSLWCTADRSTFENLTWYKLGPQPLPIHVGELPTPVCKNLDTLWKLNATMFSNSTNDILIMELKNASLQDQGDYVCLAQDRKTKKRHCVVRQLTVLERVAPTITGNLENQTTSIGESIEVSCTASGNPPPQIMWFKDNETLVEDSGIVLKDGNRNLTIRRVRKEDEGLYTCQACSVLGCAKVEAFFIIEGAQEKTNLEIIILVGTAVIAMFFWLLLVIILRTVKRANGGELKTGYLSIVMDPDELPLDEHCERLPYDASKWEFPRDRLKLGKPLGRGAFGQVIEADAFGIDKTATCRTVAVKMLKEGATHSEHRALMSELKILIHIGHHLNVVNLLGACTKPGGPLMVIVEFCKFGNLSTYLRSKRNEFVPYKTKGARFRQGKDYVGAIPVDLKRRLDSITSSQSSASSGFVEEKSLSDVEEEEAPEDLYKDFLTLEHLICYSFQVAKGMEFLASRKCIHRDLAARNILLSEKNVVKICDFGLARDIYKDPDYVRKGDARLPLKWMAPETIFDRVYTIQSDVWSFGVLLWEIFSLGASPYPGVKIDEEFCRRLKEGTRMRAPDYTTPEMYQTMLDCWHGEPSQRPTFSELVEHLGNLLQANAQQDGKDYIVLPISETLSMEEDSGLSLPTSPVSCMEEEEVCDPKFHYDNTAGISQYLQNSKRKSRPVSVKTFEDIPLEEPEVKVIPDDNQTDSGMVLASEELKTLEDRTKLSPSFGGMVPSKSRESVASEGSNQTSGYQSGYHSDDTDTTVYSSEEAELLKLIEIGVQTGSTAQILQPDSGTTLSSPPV
# Procedure: as §1, §2
# [6] = target: T2, BMX (Homo sapiens, UniProt P51813); assay: TR-FRET kinase assay, BMX; details: Kinase Concentration 0.5 nM; 50 nM ULight-labeled substrate, 200 micromolar ATP, 2 hours
# T2 sequence (P51813 1-675): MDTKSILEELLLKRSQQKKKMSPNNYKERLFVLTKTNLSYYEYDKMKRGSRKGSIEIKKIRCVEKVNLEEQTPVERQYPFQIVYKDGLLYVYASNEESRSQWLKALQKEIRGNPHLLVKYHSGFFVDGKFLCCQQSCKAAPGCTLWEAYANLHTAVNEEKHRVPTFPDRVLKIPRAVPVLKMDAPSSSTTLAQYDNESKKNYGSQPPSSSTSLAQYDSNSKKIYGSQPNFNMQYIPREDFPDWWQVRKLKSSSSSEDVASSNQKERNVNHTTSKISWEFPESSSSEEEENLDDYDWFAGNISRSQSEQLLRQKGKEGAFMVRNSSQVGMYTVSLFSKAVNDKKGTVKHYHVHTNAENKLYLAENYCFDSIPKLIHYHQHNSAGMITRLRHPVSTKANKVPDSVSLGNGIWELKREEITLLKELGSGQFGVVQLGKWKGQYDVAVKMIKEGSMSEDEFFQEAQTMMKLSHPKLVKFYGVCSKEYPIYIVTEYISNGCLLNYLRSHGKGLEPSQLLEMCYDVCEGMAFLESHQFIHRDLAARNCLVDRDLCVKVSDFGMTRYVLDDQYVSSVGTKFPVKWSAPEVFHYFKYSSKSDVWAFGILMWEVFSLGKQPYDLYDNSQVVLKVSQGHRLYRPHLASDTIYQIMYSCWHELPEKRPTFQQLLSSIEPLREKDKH
# Procedure: as §1, §2
# [7] = target: FLT4 (Homo sapiens, UniProt P35916); assay: TR-FRET kinase assay, FLT4; details: Kinase Concentration 0.25 nM; 50 nM ULight-labeled substrate, 200 micromolar ATP, 2 hours
# Chain of FLT4 (P35916 25-1363, species assumed): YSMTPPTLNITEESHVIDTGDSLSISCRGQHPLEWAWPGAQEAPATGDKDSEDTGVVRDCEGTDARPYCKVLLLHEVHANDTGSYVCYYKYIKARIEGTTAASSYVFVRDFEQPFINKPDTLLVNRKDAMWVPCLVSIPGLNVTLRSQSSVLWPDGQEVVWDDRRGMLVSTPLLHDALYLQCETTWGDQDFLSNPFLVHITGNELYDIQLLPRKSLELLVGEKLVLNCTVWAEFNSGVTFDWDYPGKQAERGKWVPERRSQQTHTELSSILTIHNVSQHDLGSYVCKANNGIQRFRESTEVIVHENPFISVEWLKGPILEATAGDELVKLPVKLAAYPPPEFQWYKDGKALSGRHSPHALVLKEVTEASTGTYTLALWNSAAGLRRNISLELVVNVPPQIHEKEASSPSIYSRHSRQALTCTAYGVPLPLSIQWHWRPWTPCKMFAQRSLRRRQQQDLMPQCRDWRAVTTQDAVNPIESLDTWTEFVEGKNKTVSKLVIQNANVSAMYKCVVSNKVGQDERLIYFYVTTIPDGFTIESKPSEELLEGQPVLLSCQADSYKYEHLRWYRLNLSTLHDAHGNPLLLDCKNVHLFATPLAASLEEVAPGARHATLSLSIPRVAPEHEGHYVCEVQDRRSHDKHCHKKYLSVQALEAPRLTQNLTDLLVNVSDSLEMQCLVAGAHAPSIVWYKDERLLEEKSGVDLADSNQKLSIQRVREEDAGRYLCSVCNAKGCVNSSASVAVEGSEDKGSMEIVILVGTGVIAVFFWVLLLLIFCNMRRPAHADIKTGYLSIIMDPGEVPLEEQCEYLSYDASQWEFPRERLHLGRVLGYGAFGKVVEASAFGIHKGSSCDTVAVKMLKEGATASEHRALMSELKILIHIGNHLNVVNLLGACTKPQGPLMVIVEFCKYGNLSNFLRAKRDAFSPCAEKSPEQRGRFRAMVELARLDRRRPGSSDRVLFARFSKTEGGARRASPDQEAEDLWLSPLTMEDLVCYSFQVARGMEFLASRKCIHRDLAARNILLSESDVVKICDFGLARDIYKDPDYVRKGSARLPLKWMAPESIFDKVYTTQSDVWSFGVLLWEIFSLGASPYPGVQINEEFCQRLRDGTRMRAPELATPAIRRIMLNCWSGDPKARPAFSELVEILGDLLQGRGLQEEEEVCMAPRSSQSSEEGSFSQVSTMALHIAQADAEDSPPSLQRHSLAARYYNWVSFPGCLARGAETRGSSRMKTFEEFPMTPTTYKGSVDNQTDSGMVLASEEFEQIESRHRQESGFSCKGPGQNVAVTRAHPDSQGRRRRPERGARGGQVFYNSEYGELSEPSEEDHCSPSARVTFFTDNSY
# Procedure: as §1, §2
# [8] = target: ACK (Homo sapiens, UniProt Q07912); assay: TR-FRET kinase assay, ACK; details: Kinase Concentration 20 nM; 50 nM ULight-labeled substrate, 200 micromolar ATP, 2 hours
# Procedure: as §1, §2
# [9] = target: YES (Homo sapiens, UniProt P07947); assay: TR-FRET kinase assay, YES; details: Kinase Concentration 0.25 nM; 50 nM ULight-labeled substrate, 200 micromolar ATP, 2 hours
# Chain of YES (P07947 whole entry, species assumed): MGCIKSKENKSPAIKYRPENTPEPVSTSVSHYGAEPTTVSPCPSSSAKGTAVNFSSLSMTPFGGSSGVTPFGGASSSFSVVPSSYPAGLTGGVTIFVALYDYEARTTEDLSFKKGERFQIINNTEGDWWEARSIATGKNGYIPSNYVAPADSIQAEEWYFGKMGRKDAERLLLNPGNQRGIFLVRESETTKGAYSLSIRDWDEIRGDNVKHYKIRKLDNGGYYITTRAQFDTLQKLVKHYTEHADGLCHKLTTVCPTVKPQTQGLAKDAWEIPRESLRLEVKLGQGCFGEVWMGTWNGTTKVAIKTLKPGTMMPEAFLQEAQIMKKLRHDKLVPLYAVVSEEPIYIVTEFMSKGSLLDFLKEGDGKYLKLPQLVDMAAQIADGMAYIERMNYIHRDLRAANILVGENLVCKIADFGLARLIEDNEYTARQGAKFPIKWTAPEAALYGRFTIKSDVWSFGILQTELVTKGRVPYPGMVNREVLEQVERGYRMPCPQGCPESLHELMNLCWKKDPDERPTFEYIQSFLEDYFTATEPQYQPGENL
# Procedure: as §1, §2
# Chain of ALK (Q9UM73 19-1620, species assumed): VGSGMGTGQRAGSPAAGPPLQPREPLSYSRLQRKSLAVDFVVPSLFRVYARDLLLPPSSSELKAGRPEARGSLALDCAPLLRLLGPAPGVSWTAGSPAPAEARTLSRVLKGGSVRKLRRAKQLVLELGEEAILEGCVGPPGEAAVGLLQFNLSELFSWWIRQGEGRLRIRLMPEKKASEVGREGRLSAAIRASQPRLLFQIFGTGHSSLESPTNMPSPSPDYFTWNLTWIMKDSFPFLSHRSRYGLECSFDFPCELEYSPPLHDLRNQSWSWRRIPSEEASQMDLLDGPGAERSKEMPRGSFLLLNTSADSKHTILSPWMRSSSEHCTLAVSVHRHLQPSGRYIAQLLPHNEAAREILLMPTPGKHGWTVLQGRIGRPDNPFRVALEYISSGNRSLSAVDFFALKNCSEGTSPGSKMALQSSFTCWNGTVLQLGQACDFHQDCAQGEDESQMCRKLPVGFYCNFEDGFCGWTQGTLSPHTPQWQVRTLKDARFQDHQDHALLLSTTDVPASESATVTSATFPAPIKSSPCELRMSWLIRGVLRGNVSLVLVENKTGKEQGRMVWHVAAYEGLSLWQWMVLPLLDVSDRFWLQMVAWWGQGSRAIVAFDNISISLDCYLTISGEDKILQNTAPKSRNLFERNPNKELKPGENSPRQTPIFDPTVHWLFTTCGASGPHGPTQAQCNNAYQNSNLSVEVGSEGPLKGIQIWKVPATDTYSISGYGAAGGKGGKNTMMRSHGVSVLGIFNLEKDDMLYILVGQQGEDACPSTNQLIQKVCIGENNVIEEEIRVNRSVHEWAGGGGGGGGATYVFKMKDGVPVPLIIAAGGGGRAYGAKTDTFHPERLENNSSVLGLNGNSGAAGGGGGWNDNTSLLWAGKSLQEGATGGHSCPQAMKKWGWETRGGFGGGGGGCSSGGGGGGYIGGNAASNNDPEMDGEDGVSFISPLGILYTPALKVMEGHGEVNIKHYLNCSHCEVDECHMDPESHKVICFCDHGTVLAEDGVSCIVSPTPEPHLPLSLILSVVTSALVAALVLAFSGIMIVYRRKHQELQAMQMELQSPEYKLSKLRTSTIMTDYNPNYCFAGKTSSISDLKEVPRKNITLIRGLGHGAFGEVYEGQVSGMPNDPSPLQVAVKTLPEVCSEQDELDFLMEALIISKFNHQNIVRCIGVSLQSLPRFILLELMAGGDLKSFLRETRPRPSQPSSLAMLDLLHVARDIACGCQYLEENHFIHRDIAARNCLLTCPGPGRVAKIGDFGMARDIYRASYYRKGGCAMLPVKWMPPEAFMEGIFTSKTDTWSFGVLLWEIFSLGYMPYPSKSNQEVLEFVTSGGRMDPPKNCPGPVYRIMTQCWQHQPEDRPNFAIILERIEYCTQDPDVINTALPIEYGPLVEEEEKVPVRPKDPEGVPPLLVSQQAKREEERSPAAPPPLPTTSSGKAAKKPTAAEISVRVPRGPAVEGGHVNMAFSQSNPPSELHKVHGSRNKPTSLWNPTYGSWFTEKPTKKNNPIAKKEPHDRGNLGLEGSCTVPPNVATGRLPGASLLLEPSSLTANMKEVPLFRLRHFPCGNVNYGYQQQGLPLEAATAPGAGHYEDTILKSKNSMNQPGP
sequence,measurement,setting,value
C AYE AYE AYE K EYA EYA EYA K AYA EYE R (CAYEAYEAYEKEYAEYAEYAKAYAEYER; tyrosine kinase substrate peptide) [BRB1],Signal to Noise ratio with BRB1 Peptide,[1],8.8
same,Signal to Noise ratio with BRB1 Peptide,[2],1.0
same,Signal to Noise ratio with BRB1 Peptide,[3],1.5
same,Signal to Noise ratio with BRB1 Peptide,[4],29.9
same,Signal to Noise ratio with BRB1 Peptide,[5],16.9
same,Signal to Noise ratio with BRB1 Peptide,[6],7.1
same,Signal to Noise ratio with BRB1 Peptide,[7],20.0
same,Signal to Noise ratio with BRB1 Peptide,[8],17.3
same,Signal to Noise ratio with BRB1 Peptide,[9],28.0
